No end group written: not given here.
What was measured:
[1] = CD spectrum measurement of triple-helical structure and its thermal stability; format: physicochemical; conditions: 225 nm; temperature gradient 18° C./h
Description: The structure of the peptide was confirmed by CD spectrum (circular dichroism spectrometer J-820, JASCO Corporation). A peptide powder was dissolved in a degassed 0.05% TFA/H2O to prepare a solution of 1 mg/ml. After heating at 80° C. for 5 min, the solution was left to stand at 4° C. overnight to cause refolding as a measurement sample. CD spectrum was measured under the conditions of: temperature 4° C., 37° C., 80° C.; cell length 0.05 cm; sensitivity standard (100 mdeg); measurement wavelength 250 to 190 nm; data collection interval 0.2 nm; scanning speed 50 nm/min; response 0.5 sec; band width 1 nm; cumulated number 4. A signal obtained (θobs) was expressed as a residue average molar ellipticity (θmrw). θmrw was calculated by the following formula.
A thermal stability of the triple-helical structure was observed by monitoring θmrw, 225 associated with a change in temperature. The measurement conditions were: 4 to 75° C. or 4 to 90° C.; cell length 0.05 cm; measurement wavelength 225 nm; data collection interval 0.5° C.; temperature gradient 18° C./h; sensitivity standard (100 mdeg); response 2 sec; band width 1 nm. It was determined that the triple-helical structure completely turned into a random coil structure in a region where the signal was linearly diminishing.

[2] = Remaining thiol group (Ellman's reagent) in oxidative polymerization reaction; format: physicochemical; conditions: 10% DMSO, peptide 1% (w/v)
Description: Degassed water was used to prepare a peptide solution having a concentration of 1.11% (w/v), and the solution was then put into a PCR tube. After heating this solution at 80° C. for 5 min, it was then left to sand still at 4° C. overnight. By adding DMSO to this solution, there was prepared a peptide solution having a final concentration of 10% DMSO, peptide 1% (w/v). The PCR tube was then filled with a mineral oil in a way such that the mineral oil covered the surface of the solution. In every measurement, the mineral oil was eliminated from the peptide solution to prepare a peptide solution for oxidation monitoring. Ellman's reagent was prepared in a way such that 9 mg/ml of DTNB was present in 50 mM of a phosphate buffer solution (pH 8.4). 33 mM phosphate buffer solution (pH 8.4) and Ellman's reagent 1.5 mg/ml were left to stand for […], then a light absorbance was then measured after a solution with a final concentration of peptide 0.167 mg/ml. Recorded were changes in absorbance with time, with a moment when DMSO was added being a starting point (0 hour). Since the Ellman's reagent generates 5-mercapto-2-nitrobenzoate (λ max=412 nm, ε=1.55×10^4) depending on the amount of thiol groups (referred to as “SH groups” hereunder) in the peptide, measured was a absorbance at 412 nm. After the measurement, optical path length was compensated by measuring absorbance at 997 nm and 900 nm.

[3] = Thermal stability of hydrogel (sinking of stainless ball); format: physicochemical; conditions: hydrogel of 1% (w/v) peptide; 10 min per temperature
Description: After mounting the stainless ball on the hydrogel prepared, they were moved to a thermostatic device, and were left to stand for 10 min at various temperatures between 35° C. and 95° C. Whether gel collapse had occurred was determined by judging the sinking of the stainless ball.

[4] = Hydrogel formation judged by holding of a stainless ball; format: physicochemical; design: key to gel formation, Time (hour) 9 / gel formation, Time (hour) 12 / gel formation, Time (hour) 15 / gel formation, Time (hour) 24 / gel formation, Time (hour) 32 / gel formation, Time (hour) 74 / gel formation, Peptide concentration 0.1% (w/v) / gel formation, Peptide concentration 0.2% (w/v) / gel formation, Peptide concentration 0.3% (w/v) / gel formation, Peptide concentration 0.5% (w/v) / gel formation, Peptide concentration 0.7% (w/v) / gel formation, Peptide concentration 1.0% (w/v): ◯: Gelated; X: Failed to gelate
Description: Degassed water was used to prepare a peptide solution having a concentration of 1.11% (w/v) or 1.66% (w/v), and the solution was then put into a PCR tube. After heating this solution at 80° C. for 5 min using a polymerase chain reaction (PCR) machine (TaKaRa PCR Thermal Cycler, TAKARA BIO INC.), the solution was then left to stand at 4° C. overnight. By adding DMSO and water to this solution, there was prepared a peptide solution having a concentration of 10% DMSO, 0.1 to 1.5% (w/v). The PCR tube was then filled with a mineral oil in a way such that the mineral oil covered the liquid surface, followed by allowing the solution to stand at room temperature for a given period of time to achieve a gel. Then, gel formation was determined by looking at whether a stainless ball could be held by the gel.

[5] = Hydrogel stability to reduction treatment (DTT) or water with pipetting; format: physicochemical; conditions: water added instead of reducing solution; pipetting about 90 times/min
Description: There, verification was made on whether gel caused a collapse by breaking the disulfide cross-linking by a reduction treatment. A reducing solution of 100 μl (100 mM DTT, 50 mM phosphate buffer solution (pH 8.4)) or water was added to the hydrogel (30 μl) prepared. […] Then, pipetting procedure was respectively performed at a frequency of about 90 times/min and a volume of 100 μl/each time, using a yellow tip (up to 200 μl).

[6] = system: human dermal fibroblasts (HDF); experiment: Cell adhesion assay with multifunctional polymerized gel; format: cell-based; conditions: gels with 1% by weight CCC2-GFOGER (short) triple-chain peptide unless ligand free; 37° C., three hours
Description: CCC2-GPOGPR (short) (SEQ ID NO. 10), CC2-GPOGPR (short) (SEQ ID NO. 23) or C2-GPOGPR (short) (SEQ ID NO. 24) was respectively dissolved in a degassed ultrapure water, followed by heating it at 80° C. for 5 min, and then stranded at 4° C. overnight to form triple helix. These were mixed at various ratios, and DMSO was then added thereto in a way such that a final concentration became 10%, followed by adding them into a 96-well plate by 50 μL each. At that time, a triple-chain peptide containing CCC2-GFOGER (short) (SEQ ID NO. 11) of a weight ratio 1% was added to all the peptide mixture liquids, and those to which the triple-chain peptide was not added were recited as “Ligand-free.” This plate was then left to stand Mill in a container filled with 10% DMSO for four days or longer to turn the peptide solution into a gel. These gels were able to dilute DMSO by immersion in a cell culture medium overnight, and then used in the following experiments employing cells. Here, type I collagen was used as a positive control.
The human dermal fibroblasts (HDF) were stripped with 0.05% trypsin/EDTA, followed by centrifuged at 800 rpm in a 15 mL tube to collect the cells. […]

[7] = system: human fibroblast (HDF); experiment: Adhesion of human fibroblasts to polymerized peptide with RGD motif linked via linker; format: cell-based; conditions: 37° C., about an hour
Description: CCC2-KGHRGF (SEQ ID NO. 18) was synthesized by a method similar to that of example 2. After forming triple helix with such CCC2-KGHRGF (SEQ ID NO: 18) at 1.11 mg/ml, DMSO was added to the concentration of 10%, and a mineral oil was then layered thereon, followed by oxidized and polymerized at room temperature for a week. Next, the polymerized peptide employing CCC2-KGHRGF (SEQ ID NO: 18) was diluted to 30 μg/ml, and a 96-well plate was then coated with such polymerized peptide overnight. Then, the solution was removed, followed by adding thereto 1 mg/ml BS (PEG)5 (by Pierce, catalog No. 21581) dissolved in a 5 mg/ml NaHCO3 aqueous solution, and then reacted at room temperature for about an hour to bind the linker. Next, there was added 10 mM ethanolamine (EA) or 100 μg/ml RGD pep (SEQ ID NO. 22) dissolved in a 5 mg/ml NaHCO3 aqueous solution, followed by allowing reaction to link CCC2-KGHRGF (SEQ ID NO: 18) to the linker at room temperature for about an hour.
5 mg/ml BSA was added to a gel linked with the above RGD motif, to perform blocking for about an hour. […] After air drying, microscopic observation was carried out, and there was evaluated a binding ability of HDF to the RGD motif linked to such polymerized peptide via a linker.

CC(POG)6PRG(POG)5CC (CCPPGPPGPPGPPGPPGPPGPRGPPGPPGPPGPPGPPGCC; not fully specified; hydroxyproline; MOD_RES (4)..(4) 4-Hydroxyproline; MOD_RES (7)..(7) 4-Hydroxyproline; MOD_RES (10)..(10) 4-Hydroxyproline; MOD_RES (13)..(13) 4-Hydroxyproline; MOD_RES (16)..(16) 4-Hydroxyproline; MOD_RES (19)..(19) 4-Hydroxyproline; MOD_RES (25)..(25) 4-Hydroxyproline; MOD_RES (28)..(28) 4-Hydroxyproline; MOD_RES (31)..(31) 4-Hydroxyproline; MOD_RES (34)..(34) 4-Hydroxyproline; MOD_RES (37)..(37) 4-Hydroxyprolin) [CC2]
thermal denaturation (change in θ225 as temperature changed) [1]: about 75 °C | time in which peptide turned into a gel [2]: 74 h | temperature at which the stainless ball completely sank [3]: 95 °C | gel-forming capability ([4]; 1% (w/v) peptide, 10% DMSO, room temperature, up to three days): capable of turning into gels | gel formation, Time (hour) 9 ([4]; 1% (w/v) peptide, 9 hour): X | gel formation, Time (hour) 12 ([4]; 1% (w/v) peptide, 12 hour): X | gel formation, Time (hour) 15 ([4]; 1% (w/v) peptide, 15 hour): X | gel formation, Time (hour) 24 ([4]; 1% (w/v) peptide, 24 hour): X | gel formation, Time (hour) 32 ([4]; 1% (w/v) peptide, 32 hour): ◯ | gel formation, Time (hour) 74 ([4]; 1% (w/v) peptide, 74 hour): ◯ | gel formation, Peptide concentration 0.3% (w/v) ([4]; oxidizing conditions: room temperature, three days, 0.3% (w/v)): X | gel formation, Peptide concentration 0.5% (w/v) ([4]; oxidizing conditions: room temperature, three days, 0.5% (w/v)): X | gel formation, Peptide concentration 0.7% (w/v) ([4]; oxidizing conditions: room temperature, three days, 0.7% (w/v)): X | gel formation, Peptide concentration 1.0% (w/v) ([4]; oxidizing conditions: room temperature, three days, 1.0% (w/v)): ◯ | gel collapse on adding water [5]: gel collapse was observed

CCC(POG)4FOGERG(POG)4CCC [CCC2-GFOGER (short)]
adhesion and aggregation of human dermal fibroblasts on gel [6]: each human dermal fibroblast elongated and adhered respectively

GRGDS-NH2 [soluble RGD, soluble peptide having the RGD motif, as a control]
adhesion of HDF [7]: binding ability of HDF was not exhibited

Source: patent US10851152B2, “Polymerized peptide and gel having collagen-like structure” (WASEDA UNIVERSITY, priority 2015, dated 2020)
